The values below come from patent publication US20220204609A1.

Experiment [1] addresses Claudin18.2 on cells (human) (UniProt P56856). The experiment can be described thus: cell-based or functional assay.
The target is the same in experiment [2]. The experiment can be described thus: flow cytometry on NUGC4 cells, antibody at 3 µg/mL. For orientation: In flow cytometry, cells or beads pass a laser one at a time.
The target is the same in experiment [3]. The experiment can be described thus: flow cytometry on NUGC4 cells, antibody at 1.5 µg/mL.
The target is the same in experiment [4]. The experiment is described as follows: flow cytometry on NUGC4 cells, antibody at 0.75 µg/mL.
Experiment [5] shares this target. The experiment is described as follows: flow cytometry on 293T-Claudin18.2 cells, antibody at 3 µg/mL.
Experiment [6] deals with Claudin18.1 on cells (human) (UniProt P56856). The experiment can be described thus: flow cytometry on 293T-Claudin18.1 cells, antibody at 3 µg/mL.
The target in experiment [7] is Claudin18.2 on cells (human) (UniProt P56856). The experiment is described as follows: flow cytometry on 293T-Claudin18.2 cells, antibody at 1.5 µg/mL.
Experiment [8] has as its target Claudin18.1 on cells (human) (UniProt P56856). The experiment is described as follows: flow cytometry on 293T-Claudin18.1 cells, antibody at 1.5 µg/mL.
Experiment [9] concerns the target Claudin18.2 on cells (human) (UniProt P56856). The experiment can be described thus: flow cytometry on 293T-Claudin18.2 cells, antibody at 0.75 µg/mL.
Experiment [10] has as its target Claudin18.1 on cells (human) (UniProt P56856). The experiment is described as follows: flow cytometry on 293T-Claudin18.1 cells, antibody at 0.75 µg/mL.
In experiment [11] the target is Claudin18.2 on cells (human) (UniProt P56856). The experiment is described as follows: flow cytometry on 293T-Claudin18.2 cells, antibody at 0.375 µg/mL.
Experiment [12] addresses Claudin18.1 on cells (human) (UniProt P56856). The experiment is described as follows: flow cytometry on 293T-Claudin18.1 cells, antibody at 0.375 µg/mL.
Experiment [13] has as its target Claudin18.2 protein (Genscript Biotech) (UniProt P56856). The experiment can be described thus: ELISA, plate coated with Claudin18.2 antigen at 0.2 µg/mL, antibody at 1 µg/mL.
Experiment [14] has the same target. The experiment can be described thus: ELISA, plate coated with Claudin18.2 antigen at 0.05 µg/mL, antibody at 1 µg/mL. On the technique in general: ELISA stands for enzyme-linked immunosorbent assay.
Experiment [15] has the same target. The experiment is described as follows: ELISA, plate coated with Claudin18.2 antigen at 0.0125 µg/mL, antibody at 1 µg/mL.

B1: CLDMix-CA818-IgG1 (antibody, V domains shown)
VH: GAATAVGRRTVEASETLSLTCAVYGGSFSGYYWSWIRQPPGKGLEWIGEINHSGSTNYNPSLKSRVTISVDTSKNQFSLKLSSVTAADTAVYYCARGPYDILTGYYPYWYFDLWGRGTLVTVSS
VL: DIVMTQSPSTLSASVGDRVTITCRASQGIRNDLGWYQQKPGKAPKLLIYDASSLQSGVPSRFSGSGYGTDFTLTISSLQPEDFATYYCLQDYNYPWTFGQGTKLEIKR
Take B1: in experiment [1], the ADCC inhibition rate, %, antibody 0.5 µg/mL, 293T-Claudin18.2 target cells, PBMC effectors, LDH worked out at 15%. The molecule also gave an ADCC inhibition rate, %, antibody 5 µg/mL, 293T-Claudin18.2 target cells, PBMC effectors, LDH in experiment [1] of 25%. The ADCC inhibition rate, %, antibody 50 µg/mL, 293T-Claudin18.2 target cells, PBMC effectors, LDH in experiment [1] worked out at 45%. The mean fluorescence intensity in experiment [2] came out at 42600; in experiment [3] it was 20400; in experiment [4], 15000; in experiment [5] it was 33300; in experiment [6], 34400; in experiment [7], 34200. The mean fluorescence intensity in [8] came to 17900; in experiment [9] it was 17300; in [10], 15200; in experiment [11] it was 9360; in experiment [12], 7960. The OD450 in experiment [13] was determined as 3.19; in [14], 1.28; in experiment [15], 0.492.

B2: CLDQ1-CA841-IgG1 (antibody, V domains shown)
VH: QVQLVQSGAEVKKPGSSVKVSCKASGGTFSSYAISWVRQAPGQGLEWMGRIIPILGIANYAQKFQGRVTVTADKSTSTAYMELSSLRSEDTAVYYCARERDNWDPYYYYYGMDVWGQGTTVTVSS
VL: DIQMTQSPSTLSASVGDRVTITCRASQSINSWLAWYQQKPGKAPKLLIYKASSLESGVPSRFSGSGSGTEFTLTISSLQPDDFATYYCQQYNSFPLTFGGGTKVEIKR
As for B2, the values for the OD450 in [13], in [14] and in [15] were 2.38, 0.484 and 0.165, respectively.
